Data as given in publication PMC4626798 (Scientific Reports, 2015).
Values joined by “and” are separate entries in the source; they are usually repeats but may differ in a detail not shown here. Identical values can stand only once.

T1: GST-Ppz1^Cter (S. cerevisiae, UniProt P26570 345-692)
T1 construct: Ser/Thr protein phosphatase Ppz1, S. cerevisiae, carboxyl terminal domain, Ppz1 (Δ1–344), expressed from pGEX6P1-Ppz1^Cter; also called Ppz1 (Δ1–344); Ppz1 carboxyl terminal domain
T1 sequence (looked up): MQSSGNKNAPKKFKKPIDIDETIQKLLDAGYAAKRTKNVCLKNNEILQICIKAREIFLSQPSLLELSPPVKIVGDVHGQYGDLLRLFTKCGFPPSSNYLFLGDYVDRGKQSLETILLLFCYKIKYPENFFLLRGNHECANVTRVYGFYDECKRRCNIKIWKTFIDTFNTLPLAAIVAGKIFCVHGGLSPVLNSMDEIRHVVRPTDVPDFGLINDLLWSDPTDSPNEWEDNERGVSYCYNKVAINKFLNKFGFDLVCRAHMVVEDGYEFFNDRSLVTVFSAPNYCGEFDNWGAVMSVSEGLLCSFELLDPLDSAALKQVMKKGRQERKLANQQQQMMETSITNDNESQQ

T2: 6 × His-Ppz1^Cter (S. cerevisiae, UniProt P26570 345-692)
T2 construct: Ser/Thr protein phosphatase Ppz1, S. cerevisiae, carboxyl terminal domain (Ppz1^Cter, Δ1–344), first MCS of pETDuet-1; also called N-terminally 6 × His-tagged version of Ppz1^Cter; source: E. coli BL21 (DE3), co-expressed with Hal3 from pETDuet-1; purified as the complex (Ni2+ IMAC, SEC); not shown: His6, N-terminal, kept
T2 sequence (looked up): T1 sequence (looked up)

B1: 6 × His-Hal3^PD (domain or fragment, S. cerevisiae, UniProt P36024 256-495, looked up)
chain: RLPQDDGKLHVLFGATGSLSVFKIKPMIKKLEEIYGRDRISIQVILTQSATQFFEQRYTKKIIKSSEKLNKMSQYESTPATPVTPTPGQCNMAQVVELPPHIQLWTDQDEWDAWKQRTDPVLHIELRRWADILVVAPLTANTLSKIALGLCDNLLTSVIRAWNPSYPILLAPSMVSSTFNSMMTKKQLQTIKEEMSWVTVFKPSEKVMDINGDIGLGGMMDWNEIVNKIVMKLGGYPKNN
notes: Hal3 (Sis2), S. cerevisiae, PPCDC domain (PD); expected MW with tag 29.1 kDa; also called PPCDC domain of Hal3; source: E. coli BL21 (DE3), purified (Ni2+ IMAC); alone from pET28 or co-expressed with Cab3^PD (pETDuet-1); not shown: His6, N-terminal, kept
B2: Cab3^PD (untagged) (domain or fragment, S. cerevisiae, UniProt P36076 305-508, looked up)
chain: DDKKFHILIGATGSVATIKVPLIIDKLFKIYGPEKISIQLIVTKPAEHFLKGLKMSTHVKIWREEDAWVFDAVNKNDTSLSLNLILHHELRKWADIFLIAPLSANTLAKLANGICNNLLTSVMRDWSPLTPVLIAPAMNTFMYINPMTKKHLTSLVQDYPFIQVLKPVEKVLICGDIGMGGMREWTDIVEIVRRRINEIRKARD
notes: Cab3 (previously Ykl088w), S. cerevisiae, PPCDC domain (PD), residues 305–508; Expected MW 23.3 kDa; could not be made on its own; also called PPCDC domain of Cab3; Ykl088w PD; source: E. coli BL21 (DE3), co-expressed from the second MCS of pETDuet-1 with 6 × His-Hal3^PD and/or 6 × His-Vhs3^PD; co-purified (Ni2+ IMAC)
B3: Hal3 (full length, obtained from GST-Hal3 by PreScission protease treatment) (natural protein, S. cerevisiae, UniProt P36024 1-562, looked up)
chain: MTAVASTSGKQDADHNQSIECPRFSRGQKEILLDHEDAKGKDSIINSPVSGRQSISPTLSNATTTTTKSIMNATGTSGAVVSNTPEPGLKRVPAVTFSDLKQQQKQDSLTQLKNDSERTKSPNSNPAPVSNSIPGNHAVIPNHTNTSRTTQLSGSPLVNEMKDYDPKKKDSALKIVDTMKPDKIMATSTPISRENNKVTAKAPTSITLRKEDAQDQANNVSGQINVRSTPEETPVKQSVIPSIIPKRENSKNLDPRLPQDDGKLHVLFGATGSLSVFKIKPMIKKLEEIYGRDRISIQVILTQSATQFFEQRYTKKIIKSSEKLNKMSQYESTPATPVTPTPGQCNMAQVVELPPHIQLWTDQDEWDAWKQRTDPVLHIELRRWADILVVAPLTANTLSKIALGLCDNLLTSVIRAWNPSYPILLAPSMVSSTFNSMMTKKQLQTIKEEMSWVTVFKPSEKVMDINGDIGLGGMMDWNEIVNKIVMKLGGYPKNNEEEDDDEDEEEDDDEEEDTEDKNENNNDDDDDDDDDDDDDDDDDDDDDDDDEDEDEAETPGIIDKHQ
notes: Hal3 (Sis2), S. cerevisiae, the entire protein, expressed from pGEX6P1-Hal3; also called Sis2; recombinant Hal3; source: E. coli BL21 (DE3), GST-Hal3 purified and digested with PreScission protease
B4: Hal3 (untagged, entire, co-expressed from pETDuet-1) (natural protein, S. cerevisiae, UniProt P36024 1-562, looked up)
chain: B3 chain
notes: Hal3 (Sis2), S. cerevisiae, the entire Hal3, second MCS of pETDuet-1; also called Sis2; untagged version of Hal3; source: E. coli BL21 (DE3), co-expressed with 6 × His-Ppz1^Cter from pETDuet-1; purified as the complex (Ni2+ IMAC, SEC)
B5: 6 × His-Vhs3^PD (domain or fragment, S. cerevisiae, UniProt Q08438 288-577, looked up)
chain: DDGKLHVLFGATGSLSVFKLKHMIRKLEEIYGRDKICIQVILTNSATKFFAMKYMRKNKKQHNSIDTSFNSTNSNAGNITGNKKKVASLEKFSIQKTSSNSAASQTNNKQEEEKQMASTTGFPSTLGGSRTYSNSSNVVSQHPQIELPAHIQFWTDQDEWDVWRQRTDPVLHIELRRWADILVVAPLTANTLAKIALGLCDNLLTSVIRAWNPTFPIFLAPSMGSGTFNSIMTKKHFRIIQEEMPWVTVFKPSEKVMGINGDIGLSGMMDANEIVGKIVVKLGGYPDVSA
notes: Vhs3, S. cerevisiae, PPCDC domain (PD), residues 288–577; Expected MW with tag 34.5 kDa; also called PPCDC domain of Vhs3; source: E. coli BL21 (DE3), purified (Ni2+ IMAC); alone from pET28a or co-expressed with Cab3^PD (pETDuet-1); not shown: His6, N-terminal, kept

How the values were obtained:
[1] = target: the molecule itself; test: SEC; purified PD proteins and co-purified mixtures on Superose 12, 50 mM phosphate pH 7.0, 150 mM NaCl, 0.4 mL/min
[2] = target: the molecule itself; test: cross-linking; purified PD protein treated with disuccinimydyl suberate (DSS) at 37 °C (15 min Hal3^PD, 40 min Vhs3^PD), SDS-PAGE on 8% gels
[3] = target: B1; test: co-purification by Ni2+ IMAC after co-expression; untagged Cab3^PD co-expressed in E. coli with 6 × His-tagged Hal3^PD and/or Vhs3^PD (binary and ternary mixtures); Ni2+ IMAC, SDS-PAGE and densitometry; details: partners not purified
[4] = target: B5; test: as above; details: partners not purified
[5] = target: T1, GST-Ppz1^Cter; test: pull-down; GST-Ppz1^Cter (~6 μg) bound to glutathione agarose beads, incubated with increasing amounts of Hal3 (0.5-fold to 6-fold excess) for 1 h at 24 °C; washed with 50 mM Tris-HCl pH 7.5, 150 mM NaCl, 10% glycerol, 2 mM DTT; SDS-PAGE, Coomassie, densitometry; details: both partners purified
[6] = target: T2, 6 × His-Ppz1^Cter; test: SEC; IMAC-purified Ppz1^Cter–Hal3 complex on Superdex 200 HR 10/30, 50 mM Tris-HCl pH 7.5, 270 mM NaCl, 2 mM DTT, 2 mM EDTA; fractions analysed by SDS-PAGE and densitometry; details: both partners purified

Binder: B1
stoichiometry N [1]: 6 and 12 | stoichiometry N [2]: 3

Binder: B2
ratio of Hal3^PD to Cab3^PD in the co-purified binary mixture [3]: ≥ 2 fold | ratio of Hal3^PD to Cab3^PD in the co-purified ternary mixture [3]: ~2 | ratio of Vhs3^PD to Cab3^PD in the co-purified binary mixture [4]: ≥ 2 fold | ratio of Vhs3^PD to Cab3^PD in the co-purified ternary mixture [4]: ~1

Binder: B3
maximal ratio of bound Hal3 to GST-Ppz1^Cter [5]: ~0.5

Binder: B4
stoichiometry N [6]: ~1

Binder: B5
stoichiometry N [2]: 3
